Measurements: PMC11361444

Target: 3XFLAG-ZAPL N658A (human) (UniProt Q7Z2W4)
Assay: co-IP; 3XFLAG-ZAPL and myc-TRIM25 co-transfected into ZAP KO HEK293T cells; lysed in FLAG buffer (100mM Tris HCl pH8.0, 150mM NaCl, 5mM EDTA, 5% glycerol, 0.1% NP-40, 1mM DTT); FLAG beads with lysates at 4°C for 45 min, three washes, immunoblot; densitometry of myc-TRIM25 normalized to FLAG-ZAP pulldown and to WT

Chain of UniProt Q7Z2W4 (Q7Z2W4 whole entry N658A): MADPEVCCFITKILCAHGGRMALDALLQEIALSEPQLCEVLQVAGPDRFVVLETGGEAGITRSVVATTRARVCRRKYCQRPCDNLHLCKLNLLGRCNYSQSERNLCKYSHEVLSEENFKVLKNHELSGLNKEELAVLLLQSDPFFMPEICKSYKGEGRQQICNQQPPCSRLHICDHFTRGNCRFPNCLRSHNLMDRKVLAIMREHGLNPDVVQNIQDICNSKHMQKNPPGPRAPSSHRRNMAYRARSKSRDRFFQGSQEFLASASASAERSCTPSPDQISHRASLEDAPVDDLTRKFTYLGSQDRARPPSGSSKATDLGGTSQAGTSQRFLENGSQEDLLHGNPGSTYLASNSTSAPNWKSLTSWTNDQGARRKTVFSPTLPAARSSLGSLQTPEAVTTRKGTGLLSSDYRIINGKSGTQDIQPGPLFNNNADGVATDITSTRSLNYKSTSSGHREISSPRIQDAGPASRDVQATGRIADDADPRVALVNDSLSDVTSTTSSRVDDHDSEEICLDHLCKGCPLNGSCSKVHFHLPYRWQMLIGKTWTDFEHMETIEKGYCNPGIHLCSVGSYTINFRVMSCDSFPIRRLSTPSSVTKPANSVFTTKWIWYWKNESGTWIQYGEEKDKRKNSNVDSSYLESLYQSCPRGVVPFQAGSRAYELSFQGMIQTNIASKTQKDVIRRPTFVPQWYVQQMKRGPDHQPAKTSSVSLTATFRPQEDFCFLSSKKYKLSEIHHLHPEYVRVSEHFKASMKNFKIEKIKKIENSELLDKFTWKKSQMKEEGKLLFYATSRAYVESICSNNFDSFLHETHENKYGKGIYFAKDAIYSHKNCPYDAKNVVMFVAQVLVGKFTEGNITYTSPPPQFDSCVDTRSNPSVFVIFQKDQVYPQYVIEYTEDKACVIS

myc-TRIM25 (tripartite motif containing 25) (from UniProt Q14258 1-630) (natural protein)
myc-TRIM25 immunoprecipitated by FLAG-ZAP, relative to ZAPL WT (x (fold of ZAPL WT)): 1.09
